Molecular target: T1, Aβ42-GFP (Homo sapiens, UniProt P05067)
T1 construct: a chimeric fusion of the human Aβ(1-42) peptide (Aβ42) with GFP; expressed in transfected cells; host or cells: E. coli BL21(DE3)
Test: High-throughput sequencing of pSICLOPPS vectors isolated after bacterial sorting for enhanced Aβ42-GFP fluorescence
Conditions: for Reads/Total TXXXR reads (%): relative to total TXXXR reads; for Reads/Total pentapeptide reads (%): relative to total pentapeptide reads; for Normalized read number (%): Table 3, cyclo-TXXR tetrapeptides
Method in brief: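 E. coli BL21(DE3) expressing Aβ42-GFP from the T7 promoter was co-transformed with cyclic peptide libraries (0.002% L-arabinose, 0.1 mM IPTG at OD600 ~0.5, 37° C). High-fluorescence cells were sorted over repeated rounds. Plasmid peptide-encoding regions were then sequenced by Ion Torrent, discarding sequences with stop codons.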

[1] = after the second round of bacterial sorting
[2] = after the second round of bacterial sorting, relative to total peptide reads
[3] = high-throughput sequencing of isolated pSICLOPPS-NuX1X2X3-X5 vectors after the second round of bacterial sorting for enhanced Aβ42-GFP fluorescence, selected cyclo-TXXXR pentapeptides
[4] = Table 4, hexapeptides, after second round of sorting
[5] = after the second round of bacterial sorting for enhanced Aβ42-GFP fluorescence
[6] = after the second round of bacterial sorting for enhanced Aβ42-GFP fluorescence, relative to total peptide reads
[7] = pSICLOPPS-NuX1X2X3-X5 vectors after the second round of bacterial sorting for enhanced Aβ42-GFP fluorescence

| Substance | Reads/Total TXXXR reads (%) [1] [%] | Reads/Total pentapeptide reads (%) [1] [%] | Reads/Total peptide reads (%) [2] [%] | Number of reads [3] | further results |
| --- | --- | --- | --- | --- | --- |
| AβC5-323 (TAVDR; head-to-tail cyclic) | 0.008 | 0.004 | 0.003 | 147 | – |
| AβC5-379 (TRLGR; head-to-tail cyclic) | 0.005 | 0.002 | 0.002 | 95 | – |
| AβC5-301 (TTTRR; cyclic) | 0.010 | 0.005 | 0.004 | 191 | – |
| AβC5-80 (TSVHR; cyclic) | 0.535 | 0.251 | 0.225 | 10,181 | – |
| AβC5-190 (TLCLR; cyclic) | 0.039 | 0.018 | 0.016 | 739 | – |
| TLDFFD [AβC6-63] | – | – | – | – | Reads/Total hexapeptide reads (%) (Table 4): 0.025%; Reads/Total peptide reads (%) (Table 4): 0.003%; Number of reads [4]: 114 |
| cyclo-TRRR (cyclic) [AβC4-41] | – | – | – | – | Normalized read number (%): 0.2467% |
| cyclo-TTGR [AβC4-35] | – | – | – | – | Normalized read number (%): 0.295% |
| AβC5-258 (TTSCR; cyclic) | 0.016 | 0.007 | 0.007 | 301 | – |
| AβC5-136 (TALHR; cyclic) | 0.107 | 0.050 | 0.045 | 2,026 | – |
| AβC5-139 (TTSPR; cyclic) | 0.100 | 0.047 | 0.042 | 1,904 | – |
| AβC5-393 (TTGRR; head-to-tail cyclic) | – | – | – | – | Reads/Total TXXXR reads (%) [5]: 0.005%; Reads/Total pentapeptide reads (%) [5]: 0.002%; Reads/Total peptide reads (%) [6]: 0.002%; Number of reads [7]: 87 |
| AβC5-255 (TTSRR; cyclic) | 0.017 | 0.008 | 0.007 | 325 | – |
| AβC5-20 (TTISR; cyclic) | 1.948 | 0.912 | 0.818 | 37,044 | – |
| TPVWFD [AβC6-1] | – | – | – | – | Reads/Total hexapeptide reads (%) (Table 4): 29.151%; Reads/Total peptide reads (%) (Table 4): 2.912%; Number of reads [4]: 131,935 |
| AβC5-376 (TIRDR; head-to-tail cyclic) | 0.005 | 0.002 | 0.002 | 96 | – |
| AβC5-396 (TTTPR; head-to-tail cyclic) | – | – | – | – | Reads/Total TXXXR reads (%) [5]: 0.004%; Reads/Total pentapeptide reads (%) [5]: 0.002%; Reads/Total peptide reads (%) [6]: 0.002%; Number of reads [7]: 84 |
| AβC5-343 (TNLDR; head-to-tail cyclic) | 0.007 | 0.003 | 0.003 | 125 | – |
| AβC5-449 (TANAR; cyclic pentapeptide) | – | – | – | – | Reads/Total TXXXR reads (%) [5]: 0.003%; Reads/Total pentapeptide reads (%) [5]: 0.001%; Reads/Total peptide reads (%) [6]: 0.001%; Number of reads [7]: 58 |
| AβC5-438 (TTTSR; cyclic pentapeptide) | – | – | – | – | Reads/Total TXXXR reads (%) [5]: 0.003%; Reads/Total pentapeptide reads (%) [5]: 0.002%; Reads/Total peptide reads (%) [6]: 0.001%; Number of reads [7]: 62 |

| Substance | Reads/Total TXXXR reads (%) [1] [%] | Reads/Total pentapeptide reads (%) [1] [%] | Reads/Total peptide reads (%) [2] [%] | Number of reads [3] | further results |
| --- | --- | --- | --- | --- | --- |
| TLWVFD [AβC6-37] | – | – | – | – | Reads/Total hexapeptide reads (%) (Table 4): 0.078%; Reads/Total peptide reads (%) (Table 4): 0.008%; Number of reads [4]: 355 |
| AβC5-413 (TSHAR; cyclic pentapeptide) | – | – | – | – | Reads/Total TXXXR reads (%) [5]: 0.004%; Reads/Total pentapeptide reads (%) [5]: 0.002%; Reads/Total peptide reads (%) [6]: 0.002%; Number of reads [7]: 74 |
| AβC5-47 (TTIDR; cyclic pentapeptide) | 1.038 | 0.486 | 0.436 | 19,735 | – |
| AβC5-382 (TTITR; head-to-tail cyclic) | 0.005 | 0.002 | 0.002 | 92 | – |
| AβC5-252 (TVIWR; cyclic) | 0.017 | 0.008 | 0.007 | 331 | – |
| AβC5-381 (TTHTR; head-to-tail cyclic) | 0.005 | 0.002 | 0.002 | 93 | – |
| AβC5-66 (TTHWR; cyclic pentapeptide) | 0.752 | 0.352 | 0.316 | 14,304 | – |
| AβC5-264 (TSGAR; cyclic) | 0.015 | 0.007 | 0.006 | 282 | – |
| TVTWFD [AβC6-6] | – | – | – | – | Reads/Total hexapeptide reads (%) (Table 4): 3.778%; Reads/Total peptide reads (%) (Table 4): 0.377%; Number of reads [4]: 17,100 |
| AβC5-27 (TTSAR; cyclic) | 1.482 | 0.694 | 0.622 | 28,188 | – |
| AβC5-333 (THVRR; head-to-tail cyclic) | 0.007 | 0.003 | 0.003 | 137 | – |
| AβC5-443 (TTHHR; cyclic pentapeptide) | – | – | – | – | Reads/Total TXXXR reads (%) [5]: 0.003%; Reads/Total pentapeptide reads (%) [5]: 0.001%; Reads/Total peptide reads (%) [6]: 0.001%; Number of reads [7]: 60 |
| AβC5-29 (TTLER; cyclic) | 1.447 | 0.678 | 0.607 | 27,514 | – |
| AβC5-253 (TTWFR; cyclic) | 0.017 | 0.008 | 0.007 | 327 | – |
| AβC5-304 (TSINR; cyclic) | 0.010 | 0.004 | 0.004 | 182 | – |
| AβC5-305 (TTADR; cyclic) | 0.010 | 0.004 | 0.004 | 181 | – |
| TPCWFD [AβC6-46] | – | – | – | – | Reads/Total hexapeptide reads (%) (Table 4): 0.056%; Reads/Total peptide reads (%) (Table 4): 0.006%; Number of reads [4]: 252 |
| AβC5-102 (TTYNR; cyclic) | 0.319 | 0.149 | 0.134 | 6,067 | – |
| AβC5-299 (TTVGR; cyclic) | 0.011 | 0.005 | 0.004 | 200 | – |
| AβC5-321 (TTTFR; head-to-tail cyclic) | 0.008 | 0.004 | 0.003 | 148 | – |

From patent US12559863B2, “Macrocyclic modulators of disease associated protein misfolding and aggregation” (RESQ BIOTECH, priority 2017, dated 2026)
